Laboratory results from the supplement of paper PMC10126150.
± gives the standard deviation of the averaged measurements.

The sequences below were run on ATP (assay: switch fluorescence ratio, 500 uM ATP over buffer (Cy3 cluster intensity, sum of 5 cycles each) (fold (ratio)); higher = stronger signal-on switching upon ATP binding; sequences stand for … in TCGTCGGCAGCGTCAGATGTGTATAAGAGACAGTTTTTTTTTTTTTTTTTTTTTTTTT…TC). Settings: aptamer strand: ATP DNA aptamer (quencher-CACCTGGGGGAGTATTGCGGAGGAAGG + anchor), 100 nM annealed; ATP concentration: 500 uM.
In short: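 Values give the fluorescence ratio for each switch-domain sequence, averaged from per-cluster ratios of summed target-cycle to summed buffer-cycle Cy3 intensity. The Cy3-labelled switching-strand clusters sat on a modified Illumina MiSeq flow-cell, were annealed to 100 nM quencher-labelled ATP aptamer, and were imaged in selection buffer, then after 15 min with 500 uM ATP at 22 °C. Five cycles ran with NaOH stripping and re-annealing between them, and clusters outside 100-1000 RFU were excluded.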
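Also: ATP exposure 15 min at 22 °C before imaging.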

| Sequence | switch fluorescence ratio |
| --- | --- |
| AGATGATAGG | 1.0282 ± 0.00044 |
| AGATGGAGGC | 1.0705 ± 0.00017 |
| AGATGGCTAG | 0.999 ± 0.018 |
| AGATGGGGCA | 0.9774 ± 0.0024 |
| AGATGGGGG | 0.948 ± 0.066 |
| AGATGGTTTC | 0.993 ± 0.042 |
| AGATGTATTT | 0.997 ± 0.032 |
| AGATGTGAGC | 1.03 ± 0.059 |
| AGATGTGTAG | 1.04 ± 0.012 |
| AGATGTTGTT | 1.01 ± 0.023 |
| AGATGTTTCC | 1.04 ± 0.055 |
| AGATTAAAGA | 1.006 ± 0.009 |
| AGATTACCTG | 1.02 ± 0.027 |
| AGATTACCTT | 1.06 ± 0.017 |
| AGATTAGAT | 0.993 ± 0.015 |
| AGATTAGGGA | 0.975 ± 0.017 |
| AGATTAGGGT | 1.01 ± 0.017 |
| AGATTATTTT | 1.01 ± 0.032 |
| AGATTCAATA | 0.991 ± 0.016 |
| AGATTCATGC | 1.01 ± 0.019 |
| AGATTCATTT | 0.984 ± 0.021 |
| AGATTCGGGA | 0.967 ± 0.038 |
| AGATTGAATG | 0.97975 ± 0.00032 |
| AGATTGCCGT | 1.01 ± 0.068 |
| AGATTGCTTG | 0.977 ± 0.03 |

| Sequence | switch fluorescence ratio |
| --- | --- |
| AGATTGGGGG | 0.969 ± 0.034 |
| AGATTGGGGT | 1.01 ± 0.017 |
| AGATTTAGTA | 0.982 ± 0.06 |
| AGATTTCACT | 1.01 ± 0.016 |
| AGATTTGGCT | 0.9952 ± 0.0065 |
| AGATTTTGCA | 0.989 ± 0.027 |
| AGATTTTTGG | 1.003 ± 0.0026 |
| AGCAAAAGAA | 1.12 ± 0.15 |
| AGCAACCCCT | 1.81 ± 0.022 |
| AGCAAGAGGC | 1.26 ± 0.34 |
| AGCAAGGATT | 1.1 ± 0.1 |
| AGCAAGTATC | 1.24 ± 0.033 |
| AGCAAGTTGT | 1.03 ± 0.011 |
| AGCAATGGGG | 1.58 ± 0.051 |
| AGCACGAGGG | 0.9816 ± 0.0093 |
| AGCACGGGGG | 1.19 ± 0.28 |
| AGCACTGGGA | 1.04 ± 0.029 |
| AGCACTTACA | 1.35 ± 0.085 |
| AGCAGAAAGT | 1 ± 0.04 |
| AGCAGGGGGT | 1.05 ± 0.044 |
| AGCAGGTTGT | 1.05 ± 0.015 |
| AGCAGTGCGG | 1.03 ± 0.024 |
| AGCAGTTCCG | 1.02 ± 0.044 |
| AGCATAAGCA | 1.15 ± 0.27 |
| AGCATAATAT | 1.05 ± 0.012 |

| Sequence | switch fluorescence ratio |
| --- | --- |
| AGCATGAACT | 1.07 ± 0.044 |
| AGCATGGTAG | 1.02 ± 0.031 |
| AGCATTGGGT | 1.002 ± 0.0015 |
| AGCATTGGTT | 1.02 ± 0.035 |
| AGCATTGTCA | 1.01 ± 0.013 |
| AGCCACTGGA | 1.06 ± 0.059 |
| AGCCCACTCG | 1.04 ± 0.05 |
| AGCCCATACG | 1.2 ± 0.039 |
| AGCCCGGGCA | 0.956 ± 0.015 |
| AGCCGAATTC | 1.03 ± 0.06 |
| AGCCGATATT | 0.967 ± 0.015 |
| AGCCGCTTCA | 0.9803 ± 0.0053 |
| AGCCGGCGGT | 1.02 ± 0.019 |
| AGCCGTTGAG | 0.9916 ± 0.0061 |
| AGCCTGTTAG | 0.9892 ± 0.0087 |
| AGCCTTTATC | 1.04 ± 0.011 |
| AGCGAATGGT | 0.951 ± 0.012 |
| AGCGACGGTT | 0.982 ± 0.016 |
| AGCGCCAGGG | 1.13 ± 0.035 |
| AGCGCCGAGT | 0.973 ± 0.045 |
| AGCGCGTCGC | 0.955 ± 0.016 |
| AGCGGATTCG | 0.969 ± 0.053 |
| AGCGGCCTAA | 0.987 ± 0.014 |
| AGCGGGAACG | 1.005 ± 0.0013 |
| AGCGGGAGAT | 1.01 ± 0.061 |

| Sequence | switch fluorescence ratio |
| --- | --- |
| AGCGGGAGGG | 1.02 ± 0.015 |
| AGCGGGATGC | 1.03 ± 0.028 |
| AGCGGGGAGG | 1.03 ± 0.035 |
| AGCGGGGGAG | 1.01 ± 0.012 |
| AGCGTCTTGC | 1.01 ± 0.059 |
| AGCGTTGGTG | 1.03 ± 0.031 |
| AGCGTTTAGA | 0.989 ± 0.011 |
| AGCGTTTATA | 1.018 ± 0.0013 |
| AGCGTTTTTT | 0.998 ± 0.026 |
| AGCTAATTTT | 1.02 ± 0.013 |
| AGCTACCTTA | 1.09 ± 0.05 |
| AGCTAGGTAA | 1.01 ± 0.029 |
| AGCTCAATTA | 1.02 ± 0.03 |
| AGCTGAAG | 0.967 ± 0.013 |
| AGCTGACTAT | 1.06 ± 0.11 |
| AGCTGAGTAA | 1.036 ± 0.0085 |
| AGCTGATGTG | 1.008 ± 0.0051 |
| AGCTGCACAT | 1.048 ± 0.0022 |
| AGCTGGCCCT | 1 ± 0.013 |
| AGCTGGCTGT | 0.9735 ± 0.0037 |
| AGCTGGGATT | 0.989 ± 0.054 |
| AGCTGTACTG | 1.09 ± 0.011 |
| AGCTGTCGCT | 1.01 ± 0.076 |
| AGCTGTTGCA | 0.971 ± 0.024 |
| AGCTTAGGGA | 0.99 ± 0.036 |

| Sequence | switch fluorescence ratio |
| --- | --- |
| AGCTTATCTA | 1 ± 0.011 |
| AGCTTATGTT | 0.985 ± 0.017 |
| AGCTTCCATG | 1.09 ± 0.023 |
| AGCTTCGGTC | 0.953 ± 0.0098 |
| AGCTTCGTTT | 1 ± 0.031 |
| AGCTTCTTAA | 0.992 ± 0.068 |
| AGCTTGAAG | 0.999 ± 0.019 |
| AGCTTGATGT | 1.02 ± 0.053 |
| AGCTTGGGTC | 0.994 ± 0.019 |
| AGCTTGTCGG | 1.01 ± 0.025 |
| AGCTTGTTCG | 0.987 ± 0.023 |
| AGCTTTGGGG | 1.02 ± 0.018 |
| AGGAAAGGCG | 1.09 ± 0.015 |
| AGGAAAGTGT | 1.01 ± 0.017 |
| AGGAAATTTG | 0.994 ± 0.031 |
| AGGAACGCGG | 1.04 ± 0.018 |
| AGGAACTGCA | 1.07 ± 0.029 |
| AGGAAGCGGT | 0.958 ± 0.051 |
| AGGAAGGGGA | 0.9683 ± 0.0089 |
| AGGAATACTT | 1.07 ± 0.043 |
| AGGAATCAAG | 0.9968 ± 0.0071 |
| AGGAATGCAA | 1.09 ± 0.017 |
| AGGAATTGAT | 1.13 ± 0.27 |
| AGGAATTTTA | 0.9554 ± 0.0062 |
| AGGACAGGTG | 1.33 ± 0.055 |

| Sequence | switch fluorescence ratio |
| --- | --- |
| AGGACGGTAG | 0.992 ± 0.058 |
| AGGACGTTGG | 0.963 ± 0.034 |
| AGGACTGTCT | 0.986 ± 0.018 |
| AGGAGAACGG | 0.938 ± 0.011 |
| AGGAGAAGGG | 0.985 ± 0.018 |
| AGGAGAGGGT | 0.967 ± 0.013 |
| AGGAGAGTCA | 0.9825 ± 0.0036 |
| AGGAGGAAGT | 1.01 ± 0.026 |
| AGGAGGCATG | 0.986 ± 0.043 |
| AGGAGGCGGG | 0.99 ± 0.035 |
| AGGAGGGCAG | 1.013 ± 0.0059 |
| AGGAGGGCGA | 0.9582 ± 0.002 |
| AGGAGGTGCT | 0.965 ± 0.067 |
| AGGAGTGGGG | 1 ± 0.022 |
| AGGAGTTCTT | 0.989 ± 0.032 |
| AGGAGTTTGG | 0.981 ± 0.015 |
| AGGATAAATT | 0.983 ± 0.025 |
| AGGATACATT | 1.02 ± 0.02 |
| AGGATATGGA | 0.997 ± 0.022 |
| AGGATCTATG | 1.03 ± 0.021 |
| AGGATGAGCT | 0.969 ± 0.032 |
| AGGATGGTAA | 1 ± 0.02 |
| AGGATGGTGG | 1.02 ± 0.037 |
| AGGATGTGAC | 1.01 ± 0.02 |
| AGGATTCGGC | 1.04 ± 0.059 |

| Sequence | switch fluorescence ratio |
| --- | --- |
| AGGATTGTGA | 1.02 ± 0.028 |
| AGGATTTACT | 1.01 ± 0.026 |
| AGGATTTAGG | 0.983 ± 0.031 |
| AGGCACAGAA | 1.019 ± 0.0098 |
| AGGCACGCGC | 1.01 ± 0.013 |
| AGGCAGTTCG | 0.996 ± 0.02 |
| AGGCAGTTGG | 0.966 ± 0.019 |
| AGGCATCGGA | 0.9953 ± 0.0063 |
| AGGCATTAAT | 1.01 ± 0.018 |
| AGGCCAGGGG | 1.06 ± 0.1 |
| AGGCCCACAT | 1.01 ± 0.046 |
| AGGCCCGAGC | 0.98 ± 0.073 |
| AGGCCCGGGC | 0.958 ± 0.023 |
| AGGCCGGAGC | 1.06 ± 0.036 |
| AGGCCGGGGG | 0.992 ± 0.025 |
| AGGCCGTTCG | 0.9976 ± 0.0073 |
| AGGCCTTTTC | 1.008 ± 0.0026 |
| AGGCGAAACG | 0.97 ± 0.065 |
| AGGCGACGTT | 0.9931 ± 0.0069 |
| AGGCGAGGGG | 0.988 ± 0.032 |
| AGGCGATAAT | 1.12 ± 0.13 |
| AGGCGATCGG | 0.99 ± 0.023 |
| AGGCGCGGTG | 1.03 ± 0.0079 |
| AGGCGCTTAT | 1.33 ± 0.55 |
| AGGCGGAGCT | 0.9926 ± 0.0033 |

| Sequence | switch fluorescence ratio |
| --- | --- |
| AGGCGGATTT | 1 ± 0.044 |
| AGGCGGCTGA | 1.05 ± 0.021 |
| AGGCGGGAGG | 1.034 ± 0.0056 |
| AGGCGGGGGT | 1.018 ± 0.0094 |
| AGGCGGGTAA | 1.022 ± 0.0082 |
| AGGCGTGGCT | 0.982 ± 0.064 |
| AGGCGTTGGT | 1.05 ± 0.11 |
| AGGCTAACCG | 0.985 ± 0.019 |
| AGGCTACGTC | 0.9925 ± 0.0061 |
| AGGCTGGCTC | 0.98 ± 0.01 |
| AGGCTGTGGG | 1.03 ± 0.015 |
| AGGCTTATCT | 0.989 ± 0.025 |
| AGGCTTGAGG | 0.9904 ± 0.0044 |
| AGGCTTTGGG | 0.978 ± 0.0099 |
| AGGGAAAAGG | 1.02 ± 0.031 |
| AGGGAAATAG | 1.02 ± 0.023 |
| AGGGAAATCT | 1.034 ± 0.01 |
| AGGGAAGAAC | 1.006 ± 0.0073 |
| AGGGAAGGGC | 1.032 ± 0.0084 |
| AGGGAATTGG | 1.01 ± 0.044 |
| AGGGACAACT | 1.08 ± 0.0015 |
| AGGGACGAGT | 1.07 ± 0.11 |
| AGGGACGCGC | 1.07 ± 0.018 |
| AGGGACGGTG | 1 ± 0.056 |
| AGGGAGAAGG | 1 ± 0.011 |
